Key:
Experiment in all cases: two-hybrid
[1] = target: BD-MLA13^F99E (CC domain mutant of MLA13 fused N-terminally to the LexA binding domain) (barley)
[2] = target: BD-MLA13 (wild-type MLA13 fused N-terminally to the LexA binding domain) (barley)
[3] = target: BD-MLA13^D2A_E17A (α1-helix mutant of MLA13 fused N-terminally to the LexA binding domain) (barley)

Work on “AD-AVRA13-V2 (AVRA13-V2 lacking signal peptide, fused N-terminally to the B42 activation domain and 1xHA) (natural protein)” yielded a lowest dilution of yeast with growth without leucine [1] of 0.01 OD600, a lowest dilution of yeast with growth without leucine [2] of 0.001 OD600 and a lowest dilution of yeast with growth without leucine [3] of 0.01 OD600.

Source: publication doi:10.1101/2023.01.11.523539
